Source: the Human Domainome abundance scans (Beltran et al. 2025)
± gives the uncertainty stated by the source.

B1: WW domain-binding protein 4, residues 8 to 43; numbered along this chain, O75554 (parent)
chain: QPKKFCDYCKCWIADNRPSVEFHERGKNHKENVAKR

Variants of: B1
Assay: abundance fitness (aPCA) (normalised: wild type 0, dead -1); higher = more abundant; growth selection in yeast, the domain comes from the species named
Details: Homo sapiens

Abundance fitness of substitutions, site by site:
K35: C -0.951 ± 0.32, P -0.002 ± 0.095, G 0 ± 0.065, W 0.017 ± 0.12, R 0.004 ± 0.076, D -0.057 ± 0.11, M -0.092 ± 0.09, V -0.129 ± 0.078, E -0.099 ± 0.095, S -0.034 ± 0.068, T -0.043 ± 0.093, N -0.085 ± 0.14, Q -0.093 ± 0.1, L -0.212 ± 0.086, A 0.216 ± 0.093
F22: R -0.075 ± 0.064, V 0.085 ± 0.056, G 0.111 ± 0.059, M 0.235 ± 0.089, K -0.129 ± 0.12, A 0.09 ± 0.08, Q 0.238 ± 0.081, N -0.035 ± 0.17, I -0.33 ± 0.14, S -0.01 ± 0.075, C 0.089 ± 0.1, P -0.061 ± 0.1, E 0.07 ± 0.085, L 0.051 ± 0.073, D 0.132 ± 0.17, T 0.163 ± 0.074, Y -0.224 ± 0.12
H29: C -0.464 ± 0.25, W -0.481 ± 0.11, K -0.562 ± 0.21, V -0.349 ± 0.12, S -0.542 ± 0.083, E -0.325 ± 0.11, Y -0.736 ± 0.18, R -0.626 ± 0.084, Q -0.656 ± 0.14, P -0.894 ± 0.46, N -0.444 ± 0.099, A -0.309 ± 0.096, F -1 ± 0.32, D -0.995 ± 0.45, M -0.475 ± 0.25, T -0.63 ± 0.11
V33: G -0.22 ± 0.058, M -0.074 ± 0.34, T -0.23 ± 0.1, N -0.572 ± 0.24, K -0.278 ± 0.076, R -0.149 ± 0.066, D -0.22 ± 0.098, P -0.315 ± 0.1, E 0.022 ± 0.12, A -0.006 ± 0.079, Q -0.195 ± 0.12, I -0.404 ± 0.23, L -0.205 ± 0.075, F -0.182 ± 0.14
K27: F -0.189 ± 0.13, D -0.192 ± 0.098, S -0.128 ± 0.1, E 0.036 ± 0.073, A 0.026 ± 0.069, R -0.08 ± 0.061, G -0.096 ± 0.057, L -0.114 ± 0.061, P -0.226 ± 0.11, W -0.218 ± 0.064, M -0.115 ± 0.12, Q -0.032 ± 0.096
R36: W -0.29 ± 0.12, A 0.023 ± 0.11, M -0.267 ± 0.2, Q -0.304 ± 0.2, E 0.245 ± 0.094, S -0.032 ± 0.097, C 0.005 ± 0.14, K 0.058 ± 0.12, P 0.211 ± 0.15, G 0.16 ± 0.065
E24: M -0.451 ± 0.15, Y -0.183 ± 0.21, F -0.181 ± 0.32, G -0.364 ± 0.058, P -0.915 ± 0.091, T -0.549 ± 0.21, W -0.413 ± 0.079, S -0.232 ± 0.078, D -0.372 ± 0.15, N -0.163 ± 0.11, L -0.614 ± 0.098, K -0.187 ± 0.14, R -0.497 ± 0.06, A -0.303 ± 0.072
A34: S 0.055 ± 0.14, C -0.135 ± 0.1, T 0.022 ± 0.09, P -0.309 ± 0.26, I 0.089 ± 0.33, L -0.201 ± 0.096, G -0.036 ± 0.061, H -0.001 ± 0.12, F -0.385 ± 0.13, K -0.098 ± 0.13, Q -0.289 ± 0.14, V -0.088 ± 0.078, R -0.11 ± 0.061, D 0.351 ± 0.13, W -0.232 ± 0.12, E -0.001 ± 0.13
H23: K -0.44 ± 0.15, M -0.569 ± 0.17, S -0.549 ± 0.076, L -0.838 ± 0.082, P -0.443 ± 0.11, I -0.884 ± 0.41, T -0.717 ± 0.11, D -0.387 ± 0.13, E -0.6 ± 0.15, R -0.724 ± 0.061, V -0.895 ± 0.094, N -0.967 ± 0.27, F -0.633 ± 0.4, G -0.689 ± 0.063, W -0.601 ± 0.12, C -0.561 ± 0.11, A -0.739 ± 0.083
E21: K 0.007 ± 0.07, W -0.295 ± 0.07, M -0.332 ± 0.11, Q -0.074 ± 0.085, L -0.19 ± 0.069, P -0.467 ± 0.096, A -0.163 ± 0.063, V -0.289 ± 0.062, D -0.15 ± 0.093, R -0.05 ± 0.059, T -0.034 ± 0.085, S -0.167 ± 0.074, F -0.437 ± 0.25, H -0.475 ± 0.32, C -0.36 ± 0.094, N -0.312 ± 0.11, I -0.71 ± 0.36
V20: Q -0.254 ± 0.084, N -0.033 ± 0.17, D -0.591 ± 0.17, T -0.183 ± 0.12, I -0.275 ± 0.2, W -0.189 ± 0.077, F -0.442 ± 0.22, R -0.226 ± 0.068, L -0.314 ± 0.069, Y -0.63 ± 0.14, G -0.272 ± 0.067, E -0.127 ± 0.065, S -0.336 ± 0.081, M -0.015 ± 0.4, H -0.031 ± 0.15, P -0.512 ± 0.083
G26: E 0.153 ± 0.1, D 0.015 ± 0.13, M 0.057 ± 0.091, K -0.257 ± 0.14, R -0.228 ± 0.059, C -0.197 ± 0.097, H 0.08 ± 0.15, L -0.28 ± 0.079, A -0.072 ± 0.058, T -0.123 ± 0.089, I -1 ± 0.28, W -0.277 ± 0.068, Q 0.038 ± 0.085, V -0.18 ± 0.068, P -0.547 ± 0.11, S 0.04 ± 0.067
N32: D -0.49 ± 0.23, V -0.294 ± 0.075, F -0.405 ± 0.17, A 0.038 ± 0.08, L -0.166 ± 0.087, S -0.086 ± 0.075, K -0.111 ± 0.11, C -0.158 ± 0.1, R -0.1 ± 0.084, Y -0.289 ± 0.14, M -0.228 ± 0.14, H -0.172 ± 0.11, Q 0.035 ± 0.1, W -0.115 ± 0.079, P -0.473 ± 0.32, T -0.142 ± 0.13, I -0.446 ± 0.23
K30: R 0.049 ± 0.078, Q -0.02 ± 0.079, I 0.085 ± 0.084, M -0.177 ± 0.14, G -0.019 ± 0.057, P -0.246 ± 0.097, E 0.053 ± 0.07, D -0.265 ± 0.12, Y -0.391 ± 0.15, A -0.101 ± 0.069, T 0.201 ± 0.099, V -0.036 ± 0.07, C 0.022 ± 0.083, W -0.345 ± 0.071, L -0.061 ± 0.061, S -0.117 ± 0.069
N28: W 0.147 ± 0.1, M 0.326 ± 0.16, F 0.106 ± 0.092, G 0.109 ± 0.081, L 0.046 ± 0.084, E -0.015 ± 0.078, S -0.001 ± 0.17, V -0.016 ± 0.088, C -0.097 ± 0.2, R 0.149 ± 0.062, Q -0.087 ± 0.11, P -0.047 ± 0.11, T -0.102 ± 0.11
R25: V 0.003 ± 0.073, A 0.078 ± 0.064, M 0.079 ± 0.086, C -0.133 ± 0.097, W -0.331 ± 0.092, Q 0.049 ± 0.088, P -0.428 ± 0.072, T 0.014 ± 0.081, S -0.037 ± 0.073, G 0.039 ± 0.061, L -0.106 ± 0.066, D 0.099 ± 0.095, E -0.039 ± 0.07, Y -0.357 ± 0.14, K 0 ± 0.078
E31: W -0.955 ± 0.1, V -0.11 ± 0.086, Q -0.072 ± 0.14, T -0.259 ± 0.12, H -0.29 ± 0.2, M -0.065 ± 0.11, L -0.229 ± 0.071, S -0.326 ± 0.13, P -0.332 ± 0.087, N -0.346 ± 0.23, R -0.103 ± 0.063, D -0.093 ± 0.32, A 0.01 ± 0.068, K -0.107 ± 0.09, C -0.302 ± 0.18, G -0.153 ± 0.071
